GABA = NCCCC(=O)O
B1: fluorescein-labeled AFF4(32–67) peptide (peptide)
peptide: {FAM-GABA}-SPLFAEPYKVTSKEDKLSSRIQSMLGNYDEMKDFIG-NH2
notes: source: synthetic peptide (University of Utah DNA/Peptide Facility)
B2: unlabeled AFF4(32–67) peptide (peptide)
peptide: SPLFAEPYKVTSKEDKLSSRIQSMLGNYDEMKDFIG
B3: AFF4(2–73) (domain or fragment, human, UniProt Q9UHB7 2-73, looked up)
chain: NREDRNVLRMKERERRNQEIQQGEDAFPPSSPLFAEPYKVTSKEDKLSSRIQSMLGNYDEMKDFIGDRSIPK
notes: source: E. coli Rosetta(DE3)pLysS, purified (His-Trap, TEV digest, His-Trap); not shown: His-tag, N-terminal, cleaved
B4: AFF4(2–363) (domain or fragment, human, UniProt Q9UHB7 2-363, looked up)
chain: NREDRNVLRMKERERRNQEIQQGEDAFPPSSPLFAEPYKVTSKEDKLSSRIQSMLGNYDEMKDFIGDRSIPKLVAIPKPTVPPSADEKSNPNFFEQRHGGSHQSSKWTPVGPAPSTSQSQKRSSGLQSGHSSQRTSAGSSSGTNSSGQRHDRESYNNSGSSSRKKGQHGSEHSKSRSSSPGKPQAVSSLNSSHSRSHGNDHHSKEHQRSKSPRDPDANWDSPSRVPFSSGQHSTQSFPPSLMSKSNSMLQKPTAYVRPMDGQESMEPKLSSEHYSSQSHGNSMTELKPSSKAHLTKLKIPSQPLDASASGDVSCVDEILKEMTHSWPPPLTAIHTPCKTEPSKFPFPTKESQQSNFGTGEQK

Experiments:
Details in all cases: both partners purified
[1] = target: T1, cyclin T1 (CycT1), purified alone, wild type (human, UniProt O60563 1-264); assay: fluorescence polarisation
T1 construct: source: purified
T1 sequence (O60563 1-264): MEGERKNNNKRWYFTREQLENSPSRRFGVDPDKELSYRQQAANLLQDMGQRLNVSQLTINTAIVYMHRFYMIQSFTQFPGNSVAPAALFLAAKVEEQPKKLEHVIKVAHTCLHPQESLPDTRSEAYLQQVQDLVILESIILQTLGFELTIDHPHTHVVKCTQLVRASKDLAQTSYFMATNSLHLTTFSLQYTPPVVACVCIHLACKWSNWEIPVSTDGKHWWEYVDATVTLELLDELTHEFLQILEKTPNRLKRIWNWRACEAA

[2] = target: T2, P-TEFb (CDK9 1–330 / cyclin T1 1–264) (human, UniProt P50750 1-330; O60563 1-264); assay: fluorescence polarisation
T2 construct: also called positive transcription elongation factor b; source: High5 insect cells (baculovirus), purified (His-Trap, TEV digest, His-Trap); not shown: His-tag, N-terminal, cleaved
T2 sequence (P50750 1-330, chain 1 of 2): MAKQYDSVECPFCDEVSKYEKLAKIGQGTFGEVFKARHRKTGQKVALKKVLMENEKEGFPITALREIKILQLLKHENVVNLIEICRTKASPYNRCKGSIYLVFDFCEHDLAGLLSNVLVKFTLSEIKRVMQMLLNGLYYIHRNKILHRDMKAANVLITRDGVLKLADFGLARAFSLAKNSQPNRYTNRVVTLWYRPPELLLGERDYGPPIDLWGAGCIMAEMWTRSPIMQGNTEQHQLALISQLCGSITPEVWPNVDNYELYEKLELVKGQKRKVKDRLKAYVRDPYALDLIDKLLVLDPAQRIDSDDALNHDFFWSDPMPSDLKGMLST
T2 sequence (O60563 1-264, chain 2 of 2): as the sequence (O60563 1-264) above

[3] = target: T3, Tat-P-TEFb complex (HIV-1 Tat 1–86, CDK9 1–330, cyclin T1 1–264) (human | HIV-1, UniProt P50750;O60563;P04608); assay: fluorescence polarisation
T3 construct: also called P-TEFb-Tat; not shown: His-tag, N-terminal, cleaved; copies: + +

[4] = target: T1, cyclin T1 (CycT1), purified alone, wild …; assay: fluorescence polarisation; competition titration of unlabeled AFF4 segments against 5 nM fluorescent peptide with 75 nM CycT1, 45 nM P-TEFb or 6 nM Tat-P-TEFb; 25 mM HEPES pH 7.5, 100 mM NaCl, 10% glycerol, 0.1% NP40, 0.5 mM TCEP
[5] = target: T2, P-TEFb (CDK9 1–330 / cyclin T1 1–264); assay: as above
[6] = target: T3, Tat-P-TEFb complex (HIV-1 Tat 1–86, …); assay: as above

Binder | Kd [1] | Kd [2] | Kd [3] | Kd [4] | Kd [5] | Kd [6]
B1 | 104 ± 17 nM | 36 ± 6 nM | 8.8 ± 0.8 nM | – | – | –
B2 | – | – | – | 102 ± 10 nM | 36 ± 4 nM | 4.5 ± 0.6 nM
B3 | – | – | – | 130 ± 18 nM | 10 ± 1 nM | 0.85 ± 0.15 nM
B4 | – | – | – | – | 7 ± 1 nM | 0.6 ± 0.1 nM

From paper PMC3589825, “The AFF4 scaffold binds human P-TEFb adjacent to HIV Tat” (eLife, 2013)
